Assay results taken from patent publication US20250304927A1, “PRO-PEPTIDE VARIANTS FOR MODULATING ACTIVITY OF TRANSGLUTAMINASES” (CURIE CO. INC., priority 2022, published 2025).
Where no end group is shown, it is not given here.

T1: thermostable variant of Streptomyces mobaraensis transglutaminase (Streptomyces mobaraensis, UniProt P81453 79-407)
T1 sequence: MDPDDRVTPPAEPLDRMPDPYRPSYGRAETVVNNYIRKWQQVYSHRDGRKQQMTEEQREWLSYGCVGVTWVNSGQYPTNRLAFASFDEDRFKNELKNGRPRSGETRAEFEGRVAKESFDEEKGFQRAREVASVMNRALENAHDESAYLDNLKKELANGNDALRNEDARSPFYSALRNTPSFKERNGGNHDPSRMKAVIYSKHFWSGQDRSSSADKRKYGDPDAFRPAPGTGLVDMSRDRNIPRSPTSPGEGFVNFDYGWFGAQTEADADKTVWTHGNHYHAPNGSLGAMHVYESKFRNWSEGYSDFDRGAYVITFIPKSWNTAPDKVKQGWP


Key:
[1] = target: T2, thermostable mature transglutaminase variant (SEQ ID NO: 3) (Streptomyces mobaraensis, UniProt P81453); format: biochemical; conditions: increase in transglutaminase activity relative to wild-type pro-peptide, casein assay; Method A
T2 construct: made in house; host or cells: E. coli (lysate)
From the text: Method A. A bicistronic expression vector encoding the wild-type pro-domain of transglutaminase (SEQ ID NO: 2) and a thermostable mature transglutaminase variant (SEQ ID NO: 3) as separate polypeptides was cloned as described in PCT/US20/49226 (WO2021/178001 A1). The vector was used as a template for synthesis of a random mutagenesis library targeting the pro-domain coding sequence to create pro-domain peptide variants.
Method A. Plasmid libraries containing mature transglutaminase and variant pro-domain peptides were plated on Luria-Bertani (LB) agar plates containing 50 μg/mL of kanamycin. After incubation for at least 16 hours at 37° C., colonies were picked and inoculated into 1 mL of LB broth with 50 μg/mL kanamycin in one well of a 96 deep well culture plate. The plate was covered with a breathable seal and incubated overnight at 37° C. with 400 rpm of shaking. 10 μL of the seed culture was used to inoculate 1 mL of media in a 96 deep well culture plate for expression. The expression plate was allowed to grow for 6-8 hours at 30° C. Expression was then induced by adding isopropyl beta-D-1-thiogalactopyranoside (IPTG) to a final concentration of 1 mM and the temperature was reduced to 20° C. while growth continued for an additional 15 hours. Cells were harvested by centrifugation at 4000 rcf for 30 minutes and pellets were frozen at −80° C.
A secondary screen was performed to determine initial rate of transglutaminase in the presence of the pro-peptide variants using transglutaminase-catalyzed labeling of casein with dansylcadaverine (e.g., a commercially available kit such as the Transglutaminase Fluorogenic Activity Assay Kit, T036, Zedira, Germany). Transglutaminase activity was monitored by measuring the fluorescence (excitation wavelength 332 nm; emission wavelength 500 nm) using a BioTek Synergy H1 microplate reader. Transglutaminase-catalyzed covalent coupling (crosslinking) of monodansylcadaverine with N,N-dimethylcasein produces a product that causes a shift in intensity and wavelength of fluorescence of the dansyl group now linked to the casein. The relative transglutaminase activity is shown by increase of fluorescence intensity over time. The data were normalized for transglutaminase expression levels in E. coli lysate as described above. Pro-domain variants were identified based on their ability to alter the activity of the mature transglutaminase enzyme. […]
It is believed that these pro-peptide variants have reduced binding affinity with mature mTgase.

[2] = target: T1, thermostable variant of Streptomyces …; experiment: cell-based or functional assay
[3] = target: T1, thermostable variant of Streptomyces …; experiment: cell-based or functional assay; remark: listed apart in the source

| Molecule | Reduction in binding affinity of inhibitory peptide relative to WT [1] | Reduction in binding affinity of inhibitory peptide relative to WT [2] | Improvement in pH responsiveness of inhibitory peptide relative to WT [3] |
| --- | --- | --- | --- |
| MDNGAGEETKSTAETYRLTADDVANINALNESAPAASSAGPSFRAP [Variant Y12T] | >1.2 fold |  |  |
| MDNGAGEETKSYAHTYRLTADDVANINALNESAPAASSAGPSFRAP [Variant E14H] | >1.2 fold |  |  |
| MDNGAGEETKYYAETYRLTADDVANINALNESAPAASSAGPSFRAP [Variant S11Y] | >1.2 fold |  |  |
| MDNGAGEETKSYAETYRLTADDVANENALNESAPAASSAGPSFRAP [Variant I26E] | >1.2 fold |  |  |
| MDNGAGEETKSSAETYRLTADDVANINALNESAPAASSAGPSFRAP [Variant Y12S] | >5 fold |  |  |
| MDNGAGEETKHYAETYRLTADDVANINALNESAPAASSAGPSFRAP [Variant S11H] | >1.2 fold |  |  |
| MDNGAGEETKSYAETYRLTADPVANINALNESAPAASSAGPSFRAP [Variant D22P] | >1.2 fold |  |  |
| MDNGAGEETKSPAETYRLTADDVANINALNESAPAASSAGPSFRAP [Variant Y12P] | >1.2 fold |  |  |
| MDNGAGEETKSYAGTYRLTADDVANINALNESAPAASSAGPSFRAP [Variant E14G] | >1.2 fold |  |  |
| MDNGAGEYTKSYAETYRLTADDVANINALNESAPAASSAGPSFRAP [pro-peptide variant E8Y] |  | > 1.2 fold | > 1.2 fold |
| MDNGAGEETKSYAETYRLTARDVANINALNESAPAASSAGPSFRAP [pro-peptide variant D21R] |  | > 5 fold | > 1.2 fold |
| MDNGAGEETRSYAETYRLTADDVANINALNESAPAASSAGPSFRAP [pro-peptide variant K10R] |  | > 1.2 fold | > 1.2 fold |
| MDNGAGEETKSYAETYRLTADGVANINALNESAPAASSAGPSFRAP [pro-peptide variant D22G] |  | > 1.2 fold | > 1.2 fold |
| MDNGAGEETKLYAETYRLTADDVANINALNESAPAASSAGPSFRAP [pro-peptide variant S11L] |  | > 1.2 fold | > 1.2 fold |
| MDNGAGEETKSYAETYRLTADDVHNINALNESAPAASSAGPSFRAP [pro-peptide variant A24H] |  | > 1.2 fold | > 5 fold |
| MDNGAGEETKKYAETYRLTADDVANINALNESAPAASSAGPSFRAP [pro-peptide variant S11K] |  | > 1.2 fold | > 1.2 fold |
| MDNGAGEETKSLAETYRLTADDVANINALNESAPAASSAGPSFRAP [pro-peptide variant Y12L] |  | > 1.2 fold | > 1.2 fold |

| Molecule | Reduction in binding affinity of inhibitory peptide relative to WT [1] | Reduction in binding affinity of inhibitory peptide relative to WT [2] | Improvement in pH responsiveness of inhibitory peptide relative to WT [3] |
| --- | --- | --- | --- |
| MDNGAGEETKSYAETYRWTADDVANINALNESAPAASSAGPSFRAP [pro-peptide variant L18W] |  | > 1.2 fold | > 1.2 fold |
| MDNGAGEETKSTAETYRLTADDVANINALNESAPAASSAGPSFRAP [pro-peptide variant Y12T] |  | > 1.2 fold | > 1.2 fold |
| MDNGAGEETKSYAETYRKTADDVANINALNESAPAASSAGPSFRAP [pro-peptide variant L18K] |  | > 1.2 fold | > 1.2 fold |
| MDNGAGEEQKSYAETYRLTADDVANINALNESAPAASSAGPSFRAP [pro-peptide variant T9Q] |  | > 1.2 fold | > 1.2 fold |
| MDNGAGEETKSYAETYRLTALDVANINALNESAPAASSAGPSFRAP [pro-peptide variant D21L] |  | > 5 fold | > 1.2 fold |
| MDNGAGEETKSNAETYRLTADDVANINALNESAPAASSAGPSFRAP [pro-peptide variant Y12N] |  | > 1.2 fold | > 1.2 fold |
| MDNGAGEETGSYAETYRLTADDVANINALNESAPAASSAGPSFRAP [pro-peptide variant K10G] |  | > 1.2 fold | > 5 fold |
| MDNGAGEETKSGAETYRLTADDVANINALNESAPAASSAGPSFRAP [pro-peptide variant Y12G] |  | > 1.2 fold | > 1.2 fold |
| MDNGAGEETKSYAVTYRLTADDVANINALNESAPAASSAGPSFRAP [pro-peptide variant E14V] |  | > 1.2 fold | > 1.2 fold |
| MDNGAGEETKSYARTYRLTADDVANINALNESAPAASSAGPSFRAP [pro-peptide variant E14R] |  | > 1.2 fold | > 1.2 fold |
| MDNGAGEETDSYAETYRLTADDVANINALNESAPAASSAGPSFRAP [pro-peptide variant K10D] |  | > 1.2 fold | > 1.2 fold |
| MDNGAGEETKSYAGTYRLTADDVANINALNESAPAASSAGPSFRAP [pro-peptide variant E14G] |  | > 1.2 fold | > 5 fold |
| MDNGAGEETKSYANTYRLTADDVANINALNESAPAASSAGPSFRAP [pro-peptide variant E14N] |  | > 1.2 fold | > 5 fold |
| MDNGAGEETKSVAETYRLTADDVANINALNESAPAASSAGPSFRAP [pro-peptide variant Y12V] |  | > 1.2 fold | > 1.2 fold |
| MDNGAGEETKDYAETYRLTADDVANINALNESAPAASSAGPSFRAP [pro-peptide variant S11D] |  | > 1.2 fold | > 1.2 fold |
| MDNGAGEETKSYATTYRLTADDVANINALNESAPAASSAGPSFRAP [pro-peptide variant E14T] |  | > 1.2 fold | > 1.2 fold |
| MDNGAGEETKSYAETYRLTADDVANYNALNESAPAASSAGPSFRAP [pro-peptide variant I26Y] |  | > 1.2 fold | > 1.2 fold |
